Consider one substance from article PMC7037359.

This assay has as its target Human recombinant ADAM17 (human) (UniProt P78536).
Sequence of UniProt P78536 (P78536 18-824): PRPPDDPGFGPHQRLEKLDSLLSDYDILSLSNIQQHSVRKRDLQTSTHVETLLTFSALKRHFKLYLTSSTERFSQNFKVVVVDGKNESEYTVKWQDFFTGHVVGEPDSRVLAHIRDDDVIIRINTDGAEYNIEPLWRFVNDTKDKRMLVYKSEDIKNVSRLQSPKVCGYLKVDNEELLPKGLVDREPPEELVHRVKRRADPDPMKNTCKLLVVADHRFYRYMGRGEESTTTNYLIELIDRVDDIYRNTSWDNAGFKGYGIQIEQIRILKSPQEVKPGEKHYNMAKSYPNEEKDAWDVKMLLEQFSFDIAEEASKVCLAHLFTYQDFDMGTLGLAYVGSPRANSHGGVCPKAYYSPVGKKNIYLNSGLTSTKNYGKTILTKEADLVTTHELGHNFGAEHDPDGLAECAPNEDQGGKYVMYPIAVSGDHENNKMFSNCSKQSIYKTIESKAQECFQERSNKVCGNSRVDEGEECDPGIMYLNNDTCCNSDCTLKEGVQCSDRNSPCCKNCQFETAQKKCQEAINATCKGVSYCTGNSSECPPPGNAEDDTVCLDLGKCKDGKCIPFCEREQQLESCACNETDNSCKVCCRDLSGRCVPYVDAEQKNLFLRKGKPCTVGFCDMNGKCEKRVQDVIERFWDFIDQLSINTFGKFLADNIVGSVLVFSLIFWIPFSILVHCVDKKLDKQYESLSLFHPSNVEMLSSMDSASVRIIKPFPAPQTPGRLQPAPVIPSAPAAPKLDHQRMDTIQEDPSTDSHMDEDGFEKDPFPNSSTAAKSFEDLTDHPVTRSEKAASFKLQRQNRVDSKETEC

On to “Mca-KPLGL-Dpa-AR-NH2, fluorogenic ADAM17 substrate (peptide)”, for which the Km of the ADAM17-catalysed cleavage of the fluorogenic substrate (Lineweaver–Burk plot), control without E144 was 580 µM and the Km of the ADAM17-catalysed cleavage of the fluorogenic substrate (Lineweaver–Burk plot), in the presence of 5 μM E144 is 20 µM.
